Test results reported in paper PMC6824560, “Insight into the relationship between aryl-hydrocarbon receptor and β-catenin in human colon cancer cells” (PLoS ONE, 2019).

Target: T1, human Arnt fused to Gal4 DNA-binding domain in pGBKT7 (human, UniProt P27540 1-789)
T1 construct: Arnt, human cDNA; This fusion alone induces the reporter; also called pGBK-Arnt; source: yeast two-hybrid fusion, yeast strain Y187
Assay: two-hybrid; yeast two-hybrid in strain Y187, pGADT7 and pGBKT7 fusions, 1 μM 3MC or 0.1% DMSO for 12 h at 30°C, β-galactosidase read-out (o-nitrophenol-β-D-galactopyranoside); DDB1 or CUL4B co-expressed from pESC in some samples
Conditions: partners not purified

T1 sequence (P27540 whole entry, the tested form may be a part): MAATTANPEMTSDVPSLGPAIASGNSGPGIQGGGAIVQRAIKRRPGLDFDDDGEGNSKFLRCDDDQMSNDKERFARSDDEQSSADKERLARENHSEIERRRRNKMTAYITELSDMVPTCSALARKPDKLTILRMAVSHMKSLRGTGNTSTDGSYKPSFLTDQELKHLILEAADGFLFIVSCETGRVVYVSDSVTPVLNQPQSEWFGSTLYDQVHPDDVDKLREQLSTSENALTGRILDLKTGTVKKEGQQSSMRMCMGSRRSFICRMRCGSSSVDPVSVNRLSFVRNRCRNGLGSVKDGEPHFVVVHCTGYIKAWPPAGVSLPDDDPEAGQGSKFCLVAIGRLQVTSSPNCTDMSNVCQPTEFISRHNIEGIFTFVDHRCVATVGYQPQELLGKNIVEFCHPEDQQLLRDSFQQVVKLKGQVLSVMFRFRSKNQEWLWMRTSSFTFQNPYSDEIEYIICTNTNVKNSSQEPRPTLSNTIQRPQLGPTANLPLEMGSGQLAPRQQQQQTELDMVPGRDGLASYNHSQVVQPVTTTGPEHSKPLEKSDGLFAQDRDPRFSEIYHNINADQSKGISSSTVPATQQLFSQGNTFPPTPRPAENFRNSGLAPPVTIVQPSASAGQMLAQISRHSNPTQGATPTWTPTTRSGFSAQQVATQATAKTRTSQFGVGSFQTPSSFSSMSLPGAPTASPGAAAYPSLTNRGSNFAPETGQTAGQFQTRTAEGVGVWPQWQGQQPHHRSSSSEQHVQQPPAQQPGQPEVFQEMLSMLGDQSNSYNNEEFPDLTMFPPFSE

fold increase of two-hybrid reporter activity over pGBK-Arnt alone: ~3 fold
B1: human AhR fused to Gal4 activating domain in pGADT7 (natural protein, UniProt P35869 1-848, looked up)
chain: MNSSSANITYASRKRRKPVQKTVKPIPAEGIKSNPSKRHRDRLNTELDRLASLLPFPQDVINKLDKLSVLRLSVSYLRAKSFFDVALKSSPTERNGGQDNCRAANFREGLNLQEGEFLLQALNGFVLVVTTDALVFYASSTIQDYLGFQQSDVIHQSVYELIHTEDRAEFQRQLHWALNPSQCTESGQGIEEATGLPQTVVCYNPDQIPPENSPLMERCFICRLRCLLDNSSGFLAMNFQGKLKYLHGQKKKGKDGSILPPQLALFAIATPLQPPSILEIRTKNFIFRTKHKLDFTPIGCDAKGRIVLGYTEAELCTRGSGYQFIHAADMLYCAESHIRMIKTGESGMIVFRLLTKNNRWTWVQSNARLLYKNGRPDYIIVTQRPLTDEEGTEHLRKRNTKLPFMFTTGEAVLYEATNPFPAIMDPLPLRTKNGTSGKDSATTSTLSKDSLNPSSLLAAMMQQDESIYLYPASSTSSTAPFENNFFNESMNECRNWQDNTAPMGNDTILKHEQIDQPQDVNSFAGGHPGLFQDSKNSDLYSIMKNLGIDFEDIRHMQNEKFFRNDFSGEVDFRDIDLTDEILTYVQDSLSKSPFIPSDYQQQQSLALNSSCMVQEHLHLEQQQQHHQKQVVVEPQQQLCQKMKHMQVNGMFENWNSNQFVPFNCPQQDPQQYNVFTDLHGISQEFPYKSEMDSMPYTQNFISCNQPVLPQHSKCTELDYPMGSFEPSPYPTTSSLEDFVTCLQLPENQKHGLNPQSAIITPQTCYAGAVSMYQCQPEPQHTHVGQMQYNPVLPGQQAFLNKFQNGVLNETYPAELNNINNTQTTTHLQPLHHPSEARPFPDLTSSGFL
notes: aryl-hydrocarbon receptor (AhR), human cDNA; also called pGAD-AhR; aryl-hydrocarbon receptor; source: yeast two-hybrid fusion, yeast strain Y187
